Assay results published in CN115141270A (SHENZHEN KANGMAI BIOTECHNOLOGY CO LTD, dated 2022).

Assays:
[1] = target: SARS-CoV-2 东南亚株 (MW341443) live virus, spike glycoprotein (SARS-CoV-2); experiment: cell-based or functional assay
[2] = target: SARS-CoV-2 英国流行株 (MW255832) live virus, spike glycoprotein (SARS-CoV-2); experiment: cell-based or functional assay

B1: 抗体nCoV617 (anti-coronavirus spike glycoprotein human monoclonal antibody) (antibody, V domains shown)
VH: QVQLVESGGGVVQPGRSLRLSCAASGFTFSSYAMHWVRQAPGKGLEWVALISYDGSNKYYADSVKGRFTISRDNSKNTLYLQMNSLRAEDTAVYYCARGLGLRFLEWPISSYWGQGTLVTVSS
VL: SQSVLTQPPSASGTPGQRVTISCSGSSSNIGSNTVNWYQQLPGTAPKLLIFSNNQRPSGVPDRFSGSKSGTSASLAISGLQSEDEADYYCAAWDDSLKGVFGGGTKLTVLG
notes: also called 抗S蛋白抗体; 抗冠状病毒刺突糖蛋白单克隆抗体
- IC50 (neutralisation of live virus on Vero E6 cells, cytopathic effect) [1]: 0.87 µg/mL
- IC50 (neutralisation of live virus on Vero E6 cells, cytopathic effect) [2]: 1.1 µg/mL
